Experimental data published in article PMC10580383, “Development of Melanocortin 4 Receptor Agonists by Exploiting Animal-Derived Macrocyclic, Disulfide-Rich Peptide Scaffolds” (ACS Pharmacology & Translational Science, 2023).
Where a SMILES comes first, the peptide text is derived from it. Bridges are numbered along the chain shown (N, C = ends). Where no end group is shown, it is not given here. [ ]: non-standard residue; d: D form.

Legend:
[1] = target: T1, mouse melanocortin 4 receptor (MC4R) (Mus musculus, UniProt P56450); assay: cAMP second messenger quantification assay (Cisbio HTRF cAMP Gs kit); assay type: cell-based; conditions: for Emax: HEK293, read-out: efficacy cAMP Emax ± SD
T1 construct: expressed in transfected cells; host or cells: HEK293 / HEK293T, transient transfection
Description: Figure 3 Functional cAMP assay of synthesized peptide analogues targeting MC4R. The accumulation of adenylyl cyclase-catalyzed cAMP of (A) tachylplesin-1-like peptides (Ta1LPs, green), (B) protegrin-4-like peptides ([…], pink), (C) arenicin-3-like peptides (Ar3LPs, orange), and (D) gomesin-like peptides (GoLPs, blue) was measured in HEK293 cells transiently expressing mouse melanocortin 4 receptor (MC4R). […] Data are from three independent experiments and are shown as mean ± SEM.
Assays were performed on cells transiently expressing mouse MC4R-EGFP. BamHI and SacI restriction sites were used to clone mouse MC4R N-terminally into a pEGFP-N1 vector. Peptide ligands were assayed for […] in a 384-well format and triplicate according to the Cisbio protocol. Briefly, 5 μL containing 10,000 cells per well was incubated with 5 μL of peptide solutions prepared 2× in 1× stimulation buffer. Following an incubation of peptide ligands at 37 °C for 30 min, d2-labeled cAMP and cryptate-labeled antibody (5 μL of each) were added to the mixture and further incubated for at least 1 h at room temperature. Subsequently, cAMP levels were quantified on a Flexstation 3 (Molecular Devices, San Jose, USA) using homogeneous time-resolved fluorescence resonance energy transfer and the ratio 665/620 nm. Samples were measured in technical triplicates.
Data analysis was performed with GraphPad Prism (GraphPad Software, San Diego). The potency (EC50) and maximum efficacy (Emax) values of peptide ligands were derived from functional data fitted to three- or four-parameter nonlinear regression curves constrained to a bottom of zero.

[2] = target: mouse melanocortin 4 receptor fused to EGFP (mouse) (UniProt P56450)
Chain of mouse melanocortin 4 receptor fused to EGFP (mouse) (P56450 whole entry, the tested form may be a part): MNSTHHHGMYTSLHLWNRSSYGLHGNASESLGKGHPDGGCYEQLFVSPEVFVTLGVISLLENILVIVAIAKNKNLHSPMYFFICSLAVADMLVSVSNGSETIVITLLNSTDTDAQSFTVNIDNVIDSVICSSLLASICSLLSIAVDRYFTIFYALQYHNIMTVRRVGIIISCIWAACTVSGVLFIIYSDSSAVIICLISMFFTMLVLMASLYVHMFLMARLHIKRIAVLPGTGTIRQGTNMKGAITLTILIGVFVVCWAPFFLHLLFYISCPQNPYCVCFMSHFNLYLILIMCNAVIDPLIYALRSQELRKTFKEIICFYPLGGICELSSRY

T1 sequence (P56450 whole entry): as the sequence (P56450 whole entry, the tested form may be a part) above

cAMP accumulation (Cisbio HTRF) in HEK293 cells transiently expressing mouse MC4R-EGFP: EC50 [2] [nM] | cAMP accumulation (Cisbio HTRF) in HEK293 cells transiently expressing mouse MC4R-EGFP: Emax (normalised to NDP-α-MSH) [2] [%] | Molecule | EC50 [1] [nM] | Emax [1] [%]
210 | 99 | RGGRLCYCH[dF]RWCFCVGR-NH2 (disulfide 8-13, 6-15; N-terminus assumed; SMILES CC(C)C[C@H](NC(=O)[C@H](CCCNC(=N)N)NC(=O)CNC(=O)CNC(=O)[C@@H](N)CCCNC(=N)N)C(=O)N[C@H]1CSSC[C@@H](C(=O)N[C@H](C(=O)NCC(=O)N[C@@H](CCCNC(=N)N)C(N)=O)C(C)C)NC(=O)[C@H](Cc2ccccc2)NC(=O)[C@@H]2CSSC[C@H](NC(=O)[C@H](Cc3ccc(O)cc3)NC1=O)C(=O)N[C@@H](Cc1c[nH]cn1)C(=O)N[C@H](Cc1ccccc1)C(=O)N[C@@H](CCCNC(=N)N)C(=O)N[C@@H](Cc1c[nH]c3ccccc13)C(=O)N2) [protegrin-4-like peptide 3] | – | –
20 | 97 | KWCFRVCPH[dF]HWCYRRCR-NH2 (disulfide 7-13, 3-17; N-terminus assumed; SMILES CC(C)[C@@H]1NC(=O)[C@H](CCCNC(=N)N)NC(=O)[C@H](Cc2ccccc2)NC(=O)[C@@H](NC(=O)[C@H](Cc2c[nH]c3ccccc23)NC(=O)[C@@H](N)CCCCN)CSSC[C@@H](C(=O)N[C@@H](CCCNC(=N)N)C(N)=O)NC(=O)[C@H](CCCNC(=N)N)NC(=O)[C@H](CCCNC(=N)N)NC(=O)[C@H](Cc2ccc(O)cc2)NC(=O)[C@@H]2CSSC[C@H](NC1=O)C(=O)N1CCC[C@H]1C(=O)N[C@@H](Cc1c[nH]cn1)C(=O)N[C@H](Cc1ccccc1)C(=O)N[C@@H](Cc1c[nH]cn1)C(=O)N[C@@H](Cc1c[nH]c3ccccc13)C(=O)N2) [tachyplesin-1-like peptide 1] | – | –
17 | 98 | KWCFRVCH[dF]RWCYRRCR-NH2 (disulfide 7-12, 3-16; N-terminus assumed; SMILES CC(C)[C@@H]1NC(=O)[C@H](CCCNC(=N)N)NC(=O)[C@H](Cc2ccccc2)NC(=O)[C@@H](NC(=O)[C@H](Cc2c[nH]c3ccccc23)NC(=O)[C@@H](N)CCCCN)CSSC[C@@H](C(=O)N[C@@H](CCCNC(=N)N)C(N)=O)NC(=O)[C@H](CCCNC(=N)N)NC(=O)[C@H](CCCNC(=N)N)NC(=O)[C@H](Cc2ccc(O)cc2)NC(=O)[C@@H]2CSSC[C@H](NC1=O)C(=O)N[C@@H](Cc1c[nH]cn1)C(=O)N[C@H](Cc1ccccc1)C(=O)N[C@@H](CCCNC(=N)N)C(=O)N[C@@H](Cc1c[nH]c3ccccc13)C(=O)N2) [tachyplesin-1-like peptide 3] | – | –
48 | 97 | KWCFRVCH[dF]HWCYRRCR-NH2 (disulfide 7-12, 3-16; N-terminus assumed; SMILES CC(C)[C@@H]1NC(=O)[C@H](CCCNC(=N)N)NC(=O)[C@H](Cc2ccccc2)NC(=O)[C@@H](NC(=O)[C@H](Cc2c[nH]c3ccccc23)NC(=O)[C@@H](N)CCCCN)CSSC[C@@H](C(=O)N[C@@H](CCCNC(=N)N)C(N)=O)NC(=O)[C@H](CCCNC(=N)N)NC(=O)[C@H](CCCNC(=N)N)NC(=O)[C@H](Cc2ccc(O)cc2)NC(=O)[C@@H]2CSSC[C@H](NC1=O)C(=O)N[C@@H](Cc1c[nH]cn1)C(=O)N[C@H](Cc1ccccc1)C(=O)N[C@@H](Cc1c[nH]cn1)C(=O)N[C@@H](Cc1c[nH]c3ccccc13)C(=O)N2) [tachyplesin-1-like peptide 2] | – | –

Continued, molecule first:

Molecule | cAMP accumulation (Cisbio HTRF) in HEK293 cells transiently expressing mouse MC4R-EGFP: EC50 [2] [nM] | cAMP accumulation (Cisbio HTRF) in HEK293 cells transiently expressing mouse MC4R-EGFP: Emax (normalised to NDP-α-MSH) [2] [%] | EC50 [1] [nM] | Emax [1] [%]
CC(C)[C@@H]1NC(=O)[C@H](CCCNC(=N)N)NC(=O)[C@H](Cc2ccccc2)NC(=O)[C@@H](NC(=O)[C@H](Cc2c[nH]c3ccccc23)NC(=O)[C@@H](N)CCCCN)CSSC[C@@H](C(=O)N[C@@H](CCCNC(=N)N)C(N)=O)NC(=O)[C@H](CCCNC(=N)N)NC(=O)[C@H](CCCNC(=N)N)NC(=O)[C@H](Cc2ccc(O)cc2)NC(=O)[C@@H]2CSSC[C@H](NC1=O)C(=O)N[C@@H](Cc1c[nH]cn1)C(=O)N[C@H](Cc1ccccc1)C(=O)N[C@@H](Cc1c[nH]cn1)C(=O)N[C@@H](Cc1c[nH]c3ccccc13)C(=O)N2 [Ta1LP2] (H-KWCFRVCH[dF]HWCYRRCR-NH2; disulfide 3-16, 7-12) | – | – | 50.1 | 97 ± 6
CC(C)[C@@H]1NC(=O)[C@H](CCCNC(=N)N)NC(=O)[C@H](Cc2ccccc2)NC(=O)[C@@H](NC(=O)[C@H](Cc2c[nH]c3ccccc23)NC(=O)[C@@H](N)CCCCN)CSSC[C@@H](C(=O)N[C@@H](CCCNC(=N)N)C(N)=O)NC(=O)[C@H](CCCNC(=N)N)NC(=O)[C@H](CCCNC(=N)N)NC(=O)[C@H](Cc2ccc(O)cc2)NC(=O)[C@@H]2CSSC[C@H](NC1=O)C(=O)N[C@@H](Cc1c[nH]cn1)C(=O)N[C@H](Cc1ccccc1)C(=O)N[C@@H](CCCNC(=N)N)C(=O)N[C@@H](Cc1c[nH]c3ccccc13)C(=O)N2 [Ta1LP3] (H-KWCFRVCH[dF]RWCYRRCR-NH2; disulfide 3-16, 7-12) | – | – | 16.7 | 98 ± 4
NDP-α-MSH (peptide) | 0.04 | 100 | – | –
RGGRLCYCH[dF]HWCFCVGR-NH2 (disulfide 8-13, 6-15; N-terminus assumed; SMILES CC(C)C[C@H](NC(=O)[C@H](CCCNC(=N)N)NC(=O)CNC(=O)CNC(=O)[C@@H](N)CCCNC(=N)N)C(=O)N[C@H]1CSSC[C@@H](C(=O)N[C@H](C(=O)NCC(=O)N[C@@H](CCCNC(=N)N)C(N)=O)C(C)C)NC(=O)[C@H](Cc2ccccc2)NC(=O)[C@@H]2CSSC[C@H](NC(=O)[C@H](Cc3ccc(O)cc3)NC1=O)C(=O)N[C@@H](Cc1c[nH]cn1)C(=O)N[C@H](Cc1ccccc1)C(=O)N[C@@H](Cc1c[nH]cn1)C(=O)N[C@@H](Cc1c[nH]c3ccccc13)C(=O)N2) [protegrin-4-like peptide 2] | 150 | 97 | – | –
GFCWYVCVPH[dF]HWRVCYRRCN-NH2 (disulfide 7-16, 3-20; N-terminus assumed; SMILES CC(C)[C@@H]1NC(=O)[C@H](CCCNC(=N)N)NC(=O)[C@H](Cc2c[nH]c3ccccc23)NC(=O)[C@H](Cc2c[nH]cn2)NC(=O)[C@@H](Cc2ccccc2)NC(=O)[C@H](Cc2c[nH]cn2)NC(=O)[C@@H]2CCCN2C(=O)[C@H](C(C)C)NC(=O)[C@@H]2CSSC[C@H](NC1=O)C(=O)N[C@@H](Cc1ccc(O)cc1)C(=O)N[C@@H](CCCNC(=N)N)C(=O)N[C@@H](CCCNC(=N)N)C(=O)N[C@H](C(=O)N[C@@H](CC(N)=O)C(N)=O)CSSC[C@H](NC(=O)[C@H](Cc1ccccc1)NC(=O)CN)C(=O)N[C@@H](Cc1c[nH]c3ccccc13)C(=O)N[C@@H](Cc1ccc(O)cc1)C(=O)N[C@@H](C(C)C)C(=O)N2) [arenicin-3-like peptide 3] | 1000 | 117 | – | –
